koff data for 1 molecule are collected here from paper PMC11984392 (2025).

In one assay the target is His-tagged human EphA2 (human, UniProt P29317 24-537). In words: SPR.
Another assay concerns the target T1, His-tagged mouse EphA2 (mouse, UniProt Q03145 26-538).
T1 chain: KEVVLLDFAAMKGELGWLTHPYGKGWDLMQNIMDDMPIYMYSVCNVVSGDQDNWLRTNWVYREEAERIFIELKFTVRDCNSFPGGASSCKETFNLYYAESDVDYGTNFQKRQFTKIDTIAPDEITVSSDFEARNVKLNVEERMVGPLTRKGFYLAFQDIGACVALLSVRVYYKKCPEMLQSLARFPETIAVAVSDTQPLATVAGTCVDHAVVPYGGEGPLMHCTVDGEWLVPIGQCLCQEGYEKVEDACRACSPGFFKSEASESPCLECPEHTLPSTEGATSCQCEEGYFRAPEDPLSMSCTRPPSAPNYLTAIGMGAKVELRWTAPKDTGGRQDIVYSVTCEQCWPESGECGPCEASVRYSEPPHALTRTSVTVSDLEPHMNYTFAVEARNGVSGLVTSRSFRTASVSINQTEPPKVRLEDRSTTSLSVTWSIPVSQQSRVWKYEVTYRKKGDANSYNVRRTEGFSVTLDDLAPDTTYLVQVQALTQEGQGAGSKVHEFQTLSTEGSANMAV
In words: SPR. (SPR reads the build-up and loss of mass on a sensor chip optically.)

*1 amine or outer side, *2 acyl side, *3 side chain or, on linkers, in order; H or OH if unused. Bridges are numbered along the chain shown (N, C = ends). Primed or numbered codes have the meaning given here. [ ]: non-standard residue; d: D form. The star is where a group is joined. TATA = O=C(CC[*:1])N1CN(C(=O)CC[*:2])CN(C(=O)CC[*:3])C1; NOTA = O=C(O)CN1CCN(CC(=O)O)CCN(CC(=O)*)CC1; Hyp = O=C(O)[C@@H]1C[C@@H](O)CN1; hArg = N=C(N)NCCCC[C@H](N)C(=O)O; PEG2′ = not defined here; Sar = CNCC(=O)O

Sequence of His-tagged human EphA2 (P29317 24-537): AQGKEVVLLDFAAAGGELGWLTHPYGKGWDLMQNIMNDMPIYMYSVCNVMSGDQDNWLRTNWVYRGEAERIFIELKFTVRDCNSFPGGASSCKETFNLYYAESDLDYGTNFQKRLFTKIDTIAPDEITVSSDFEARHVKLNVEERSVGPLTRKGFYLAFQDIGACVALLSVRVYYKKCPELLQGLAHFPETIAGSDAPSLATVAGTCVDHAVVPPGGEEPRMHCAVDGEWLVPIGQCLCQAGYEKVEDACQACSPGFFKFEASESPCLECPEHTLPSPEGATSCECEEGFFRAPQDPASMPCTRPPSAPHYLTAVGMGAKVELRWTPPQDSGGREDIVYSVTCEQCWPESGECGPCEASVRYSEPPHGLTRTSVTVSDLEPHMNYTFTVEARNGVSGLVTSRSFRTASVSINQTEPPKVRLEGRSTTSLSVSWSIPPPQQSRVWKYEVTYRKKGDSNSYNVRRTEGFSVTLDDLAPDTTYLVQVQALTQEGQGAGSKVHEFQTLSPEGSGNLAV

B1: AJ201 (peptide)
peptide: {NOTA-PEG2′}-GR[Sar][Sar][Sar]GA[hArg]DC[Hyp]LVNPLCLHP[dD]W[hArg]C-NH2
modifications: linker 10-17-24 via TATA; not fully specified; also: hydroxyproline, place not given here
The koff is the first-order rate constant of dissociation. Read a high koff as fast dissociation. As for B1, the off-rate (koff) with His-tagged human EphA2 stood at 0.00133 s⁻¹; with His-tagged mouse EphA2, 0.00301 s⁻¹.
